In patent CN114539420A (SUZHOU INSTITUTE OF RESEARCH OF PSEUDO UNIV, dated 2022):

Molecular target: T1, 重组人B7-H3蛋白 (recombinant human B7-H3-ECD protein, 11188-H08H, SinoBiological) (human, UniProt Q5ZPR3 29-466)
T1 construct: extracellular domain; Bought protein; The EC50 sentence says only 'human B7-H3 protein'; also called 人B7-H3重组蛋白; 重组人B7-H3-ECD蛋白
T1 sequence (looked up): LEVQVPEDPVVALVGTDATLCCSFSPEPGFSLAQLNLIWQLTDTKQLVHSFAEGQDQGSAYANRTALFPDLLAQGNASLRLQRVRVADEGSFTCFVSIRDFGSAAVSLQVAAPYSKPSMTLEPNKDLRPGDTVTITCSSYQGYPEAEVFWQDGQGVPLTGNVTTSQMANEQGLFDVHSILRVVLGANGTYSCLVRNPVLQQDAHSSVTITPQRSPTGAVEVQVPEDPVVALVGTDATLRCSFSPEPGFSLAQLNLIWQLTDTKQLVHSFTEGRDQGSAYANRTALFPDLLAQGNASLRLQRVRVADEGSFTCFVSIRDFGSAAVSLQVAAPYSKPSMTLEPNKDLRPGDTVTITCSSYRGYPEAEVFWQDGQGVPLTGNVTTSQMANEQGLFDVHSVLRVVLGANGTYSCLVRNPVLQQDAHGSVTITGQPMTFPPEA
Test: ELISA on recombinant human B7-H3 protein (Fig. 2a, n=3)

EC50: 2.22 ng/mL
B1: 嵌合单克隆抗体10-2#c (chimeric anti-B7-H3 monoclonal antibody) (antibody, human IgG1, V domains shown)
VH: EVQLQQSGPALVKPGTSVKISCKTSGYTFTEYIIHWVKQSHGKSLEWIGGINPNNGGTSYNQKFKGKATLTVDKSSSTAYMELRSLTSEDSAVYYCASRLAPSTAGFAYWGQGTMLTVSS
VL: DIVLTQTPAIMSASPGEKVTMTCRASSSVSYMHWYQQRSGTSPKTWIYDTSKLASGVPGRFSGSGSGTSYSLTISIMEAEDAATYYCQQWSSNPPTFGGGTKLEIK
notes: also called 抗B7-H3单克隆抗体; 嵌合抗体10-2#c
